The Immune Epitope Database (IEDB)
pIC50, pKd: −log10 of the molar value.

Assays:
Conditions in all cases: source organism: Homo sapiens
[1] = biological target: HLA-A*03:01; assay: IEDB peptide-MHC binding, purified MHC/competitive/radioactivity; ≥ and ≤ were set here for values at or beyond the usual limits of such assays
[2] = biological target: HLA-A*11:01; assay: as above
[3] = biological target: HLA-A*68:01; assay: IEDB peptide-MHC binding, purified MHC/competitive/radioactivity; filed as Kd, often an IC50 or EC50 that approximates it; ≥ and ≤ were set here for values at or beyond the usual limits of such assays
[4] = biological target: HLA-A*33:01; assay: as above
[5] = biological target: HLA-A*31:01; assay: as above

| Sequence | pIC50 [1] | pIC50 [2] | pKd [3] | pKd [4] | pKd [5] |
| --- | --- | --- | --- | --- | --- |
| SLIYRRRLMK | 7.41 |  |  |  |  |
| IALNFPGSQK | 7.44 | 6.50 | 5.33 | ≤ 5.00 | ≤ 5.00 |
| LIYRRRLMK | 8.26 |  |  |  |  |

The remaining sequences from weak to strong by pIC50 [1], led by results:

| pIC50 [1] | pIC50 [2] | pKd [3] | pKd [4] | pKd [5] | Sequence |
| --- | --- | --- | --- | --- | --- |
| 7.28 |  |  |  |  | QLVLHQILK |
| 8.07 | 8.34 | ≤ 5.00 | ≤ 5.00 | ≤ 5.00 | ALNFPGSQK |
